T1: heteromeric acetyl-coenzyme A carboxylase (hetACCase) of Arabidopsis thaliana (Arabidopsis thaliana)
T1 chain 1: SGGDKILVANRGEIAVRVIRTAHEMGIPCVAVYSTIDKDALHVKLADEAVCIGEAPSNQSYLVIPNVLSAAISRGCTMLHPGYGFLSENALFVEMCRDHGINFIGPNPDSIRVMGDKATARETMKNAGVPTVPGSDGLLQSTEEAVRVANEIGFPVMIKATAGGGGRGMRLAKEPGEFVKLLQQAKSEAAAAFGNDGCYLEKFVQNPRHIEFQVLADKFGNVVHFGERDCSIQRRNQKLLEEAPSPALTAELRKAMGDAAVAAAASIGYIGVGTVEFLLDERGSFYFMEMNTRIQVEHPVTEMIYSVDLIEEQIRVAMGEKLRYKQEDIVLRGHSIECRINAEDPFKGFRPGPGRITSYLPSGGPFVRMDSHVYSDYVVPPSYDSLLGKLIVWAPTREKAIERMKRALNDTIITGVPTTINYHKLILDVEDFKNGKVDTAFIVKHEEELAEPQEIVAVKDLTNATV
T1 chain 2: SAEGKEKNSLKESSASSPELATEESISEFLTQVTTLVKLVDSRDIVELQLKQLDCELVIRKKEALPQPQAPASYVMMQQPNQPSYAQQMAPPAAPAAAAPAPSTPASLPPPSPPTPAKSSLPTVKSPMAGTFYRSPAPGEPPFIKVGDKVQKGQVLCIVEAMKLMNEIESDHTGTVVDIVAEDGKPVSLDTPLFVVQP
T1 chain 3: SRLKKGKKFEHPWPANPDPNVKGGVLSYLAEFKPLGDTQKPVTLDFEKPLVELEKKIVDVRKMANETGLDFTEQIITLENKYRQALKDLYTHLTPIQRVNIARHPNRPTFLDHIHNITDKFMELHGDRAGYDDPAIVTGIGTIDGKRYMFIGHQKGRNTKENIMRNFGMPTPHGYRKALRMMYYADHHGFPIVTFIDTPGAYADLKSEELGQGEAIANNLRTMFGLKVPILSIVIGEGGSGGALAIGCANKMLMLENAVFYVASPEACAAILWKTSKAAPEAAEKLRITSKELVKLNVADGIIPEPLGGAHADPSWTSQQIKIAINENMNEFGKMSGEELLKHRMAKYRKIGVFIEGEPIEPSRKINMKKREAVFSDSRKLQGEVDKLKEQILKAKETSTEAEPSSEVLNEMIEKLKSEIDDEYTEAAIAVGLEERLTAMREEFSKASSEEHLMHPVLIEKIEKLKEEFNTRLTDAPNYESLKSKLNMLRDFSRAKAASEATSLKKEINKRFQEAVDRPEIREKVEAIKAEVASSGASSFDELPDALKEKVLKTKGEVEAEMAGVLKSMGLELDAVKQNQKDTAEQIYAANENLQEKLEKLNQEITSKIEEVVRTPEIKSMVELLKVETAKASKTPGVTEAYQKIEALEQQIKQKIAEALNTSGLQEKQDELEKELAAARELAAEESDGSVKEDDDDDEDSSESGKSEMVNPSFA
T1 chain 4: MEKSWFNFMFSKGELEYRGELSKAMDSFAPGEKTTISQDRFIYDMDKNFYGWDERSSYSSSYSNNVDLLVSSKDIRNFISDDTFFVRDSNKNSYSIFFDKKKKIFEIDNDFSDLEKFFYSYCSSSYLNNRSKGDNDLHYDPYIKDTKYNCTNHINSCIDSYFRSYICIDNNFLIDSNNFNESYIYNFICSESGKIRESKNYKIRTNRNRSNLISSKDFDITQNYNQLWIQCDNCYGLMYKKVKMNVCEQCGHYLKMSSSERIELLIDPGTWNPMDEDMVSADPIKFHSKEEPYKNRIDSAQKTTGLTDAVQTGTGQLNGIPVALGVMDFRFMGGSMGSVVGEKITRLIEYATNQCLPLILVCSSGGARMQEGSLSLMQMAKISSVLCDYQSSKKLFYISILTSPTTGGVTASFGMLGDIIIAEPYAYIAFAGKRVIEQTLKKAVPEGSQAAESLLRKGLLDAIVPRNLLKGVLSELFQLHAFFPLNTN


Tests used:
[1] = tested on: all three BADCs (recombinant BADC1, BADC2, BADC3)
[2] = biological target: α-carboxyltransferase (α-CT) subunit of hetACCase, AT2G38040, Arabidopsis thaliana (Arabidopsis thaliana) (UniProt Q9LD43); experiment: co-IP from A. thaliana chloroplast lysate with anti-α-CT antibody, LC-MS/MS, n=7
[3] = biological target: BCCP2 (AT5G15530), biotin carboxyl carrier protein isoform 2, Arabidopsis thaliana (Arabidopsis thaliana) (UniProt Q9LLC1); experiment: co-IP from A. thaliana chloroplast lysate with anti-BCCP2 antibody, LC-MS/MS, n=7
[4] = biological target: T1, heteromeric acetyl-coenzyme A …; experiment: inhibition of ACCase activity in 20-day-old A. thaliana leaf extracts by increasing concentrations of recombinant BADC1
Protocol: ACCase activity was monitored in vitro in 20-day-old A. thaliana leaf extracts with increasing concentrations of recombinant BADC1. Specific activity was determined for each experiment and 0 μM controls were normalized to 1. Specific activity values for controls ranged from 0.84-2.00 nmol/min/mg. Each data point represented the average of four biological replicates, with each biological replicate comprised of four light-adapted leaves.

[5] = biological target: the molecule itself; experiment: intact mass analysis and non-reducing SDS-PAGE of purified recombinant protein

Row | replicates (of seven) of the co-IP in which the protein was present [3] | Ki [4] | Molecule | hetACCase activity in ten-day-old A. thaliana silique extracts (H14CO3 incorporation), 10 µM recombinant protein [1] | replicates (of seven) of the co-IP in which the protein was present [2] | binding result [5]
1 | – | – | heteromeric acetyl-coenzyme A carboxylase (hetACCase) of Arabidopsis thaliana | all three BADCs inhibited hetACCase activity by 25 to 37% | – | –
2 | 7 replicates | ~4.3 µM | BADC1 (AT3G56130), biotin/lipoyl attachment domain-containing protein, Arabidopsis thaliana (other, Recombinant and yeast two-hybrid constructs were made without the transit peptide predicted by TargetP; also called AtBADC1) AKAAKSSTTTISDGSSDASVSDGKKTVRRITFPKEVEALVHEMCDETEVAVLQLKVGDFEMNLKRKIGAATNPIPVADISPTVAPPIPSEPMNKSASSAPSPSQAKPSSEKVSPFKNTSYGKPAKLAALEASGSTNYVLVTSPAVGKFQRSRTVKGKKQSPSCKEGDAIKEGQVIGYLHQLGTELPVTSDVAGEVLKLLSDDGDSVGYGDPLVAVLPSFHDINIQ | – | 1 replicates | –
3 | 6 replicates | – | BADC2 (AT1G52670), Single hybrid motif protein, Arabidopsis thaliana (other, His-tagged or untagged from E. coli, bait/prey fusion in yeast two-hybrid, native protein in co-IPs; also called AtBADC2) TTLRSVKAIQLSTVPPAETEAIADVKDSDETKSTVVNTHLMPKSSEVEALISEITDSSSIAEFELKLGGFRLYVARKLTDESSPPPQQIQPVVAASATPEGVHTNGSATSSSLAITKTSSSSADRPQTLANKAADQGLVILQSPTVGYFRRSKTIKGKRTPTICKEKDIVKEGQVLCYIEQLGGQIPVESDVSGEIVKILREDGEPVGYNDALITVLPSFPGIKKLQ | – | 2 replicates | no binding

Reference: patent US20230416760A1 (CURATORS OF THE UNIVERSITY OF MISSOURI, published 2023)
